In patent US20110293511A1, “SPECIFIC BINDING PROTEINS AND USES THEREOF” (priority 2009, published 2011):

Columns and labels:
[1] = target: T1, denaturated sEGFR (Homo sapiens, UniProt P00533); experiment: BIAcore with immobilized sEGFR; format: binding
T1 construct: sEGFR is the recombinant extracellular domain (amino acids 1-621) of the wild-type EGFR); host or cells: CHO cells
Method: In a second set of BIAcore experiments, sEGFR was immobilized on a CM microsensor chip at a surface density of ˜4000RU. Serial dilutions of mAbs were tested for reactivity with sEGFR.

[2] = target: T2, denatured soluble domain of the EGFR (sEGFR) (Homo sapiens, UniProt P00533); experiment: competition ELISA with biotinylated mAb806; format: binding; conditions: after unlabeled blocking antibody
T2 construct: sEGFR is the recombinant extracellular domain (amino acids 1-621) of the wild-type EGFR); host or cells: CHO cells
Method: Briefly, the denatured soluble domain of the EGFR (sEGFR) was coated on to ELISA plates. The unlabeled 124 or 1133 antibodies were then added across the plate in increasing concentrations.

[3] = target: T3, EGFR of A431 cells (Homo sapiens, UniProt P00533); experiment: ELISA of 806 reactivity in A431 lysate with AG1478; format: cell-based; conditions: AG1478 0.5 μM and 5 μM, 10 min at 37° C.
T3 construct: endogenous in cells; host or cells: A431 human squamous carcinoma cells
Method: Cells were placed in serum free media overnight, then treated with AG1478 for 10 min at 37° C., washed twice in PBS, then lysed in 1% Triton and lysates prepared by centrifugation for 10 min at 12,000 g. […] Plates were then blocked with 10% serum albumin/PBS for 2 hours at 37° C. and washed twice. A 1:20 cell lysate was added in 10% serum albumin/PBS for 1 hour at 37° C., then washed four times. Anti-EGFR(SC-03; Santa Cruz Biotechnology Inc.) in 10% serum albumin/PBS was reacted 90 min at room temperature, the plate washed four times, and anti-rabbit-HRP (1:2000 if from Silenus) in 10% serum albumin/PBS was added for 90 min at room temperature, washed four times, and color developed using ABTS as a substrate.

[4] = target: T4, EGFR from U87MG.wtEGFR and A431 cells (Homo sapiens, UniProt P00533); experiment: immunoprecipitation and Endo H digestion; format: binding; conditions: majority / bulk of the material
T4 construct: endogenous in cells; host or cells: A431 (endogenous, amplified gene) and U87MG.wtEGFR (U87MG transfected with wtEGFR)
Method: This possibility was tested by immunoprecipitating the EGFR from different cells lines labelled overnight with ^35S methionine/cysteine and then subjecting the resultant precipitates to Endoglycosidase H (Endo H) digestion. This enzyme preferentially removes high mannose type carbohydrates (i.e. immature glycosylation) from proteins while leaving complex carbohydrates (i.e. mature glycosylation) intact.

[5] = target: T5, biotinylated de2-7 specific peptide (Homo sapiens, UniProt P00533, DELINS30-297G); experiment: ELISA on de2-7 junctional peptide; format: binding
T5 construct: purchased Auspep, Melbourne, Australia; host or cells: chemical synthesis (Fmoc)
Source text: In the second assay, the biotinylated de2-7 specific peptide (Biotin […] (SEQ ID NO:5)) was bound to ELISA plates precoated with streptavidin (Pierce, Rockford, Ill.). Antibodies were bound and detected as in the first assay.

[6] = system: glioblastomas not preselected for EGFR status; experiment: immunohistochemistry of 46 unselected glioblastomas; format: binding, human
Method: Immunohistochemical analysis was performed using […] sections of fresh frozen tissue applied to histology slides and fixed for 10 minutes in cold acetone. Bound primary antibody was detected with biotinylated horse anti-mouse antibody followed by an avidin-biotin-complex reaction. Diaminobenzidine tetrahydrochloride (DAB) was used as chromogen. The extent of the immunohistochemical reactivity in tissues was estimated by light microscopy and graded according to the number of immunoreactive cells in 25% increments as follows:
The 528 antibody was strongly and homogeneously positive in all samples except two (Nos. 27 and 29) (44/46, 95.7%).

B1: mAb806: murine IgG2b monoclonal antibody, clone 806, ATCC PTA-3858; VH SEQ ID NO:2, VL SEQ ID NO:4 (antibody, listed as Mus musculus, V domains shown)
VH: MRVLILLWLFTAFPGVLSDVQLQESGPSLVKPSQSLSLTCTVTGYSITSDFAWNWIRQFPGNKLEWMGYISYSGNTRYNPSLKSRISITRDTSKNQFFLQLNSVTIEDTATYYCVTAGRGFPYWGQGTLVTVSA
VL: MVSTAQFLAFLLLWFPGARCDILMTQSPSSMSVSLGDTVSITCHSSQDINSNIGWLQQRPGKSFKGLIYHGTNLDDEVPSRFSGSGSGADYSLTISSLESEDFADYYCVQYAQFPWTFGGGTKLEIKR
With B1 the “reactivity with denaturated sEGFR” value [1] was “strongly reactive”, the “Binding of biotin-labeled 806” value [2] was “None” and the “mAb806 binding in the presence of increasing amounts of AG1478” value [3] was “significantly increased”. The “Endo H sensitivity of the precipitated EGFR” value [4] was “sensitive to Endo H”, the “binding to the unique de2-7 EGFR peptide” value [5] was “Neither mAb806 or the 528 antibody bound to the peptide” and the Immunoreactivity ([6]; glioblastoma #1, EGFR Amp. A, 5′ MUT) was “++++ (++++=>75%)”. The Immunoreactivity ([6]; glioblastoma #2, EGFR Amp. N, WT) was “++++ (++++=>75%)”, the Immunoreactivity ([6]; glioblastoma #3, EGFR Amp. N, A2) was “++++ (++++=>75%)” and the Immunoreactivity ([6]; glioblastoma #4, EGFR Amp. N, WT) was “++++ (++++=>75%)”. For the same molecule, the Immunoreactivity ([6]; glioblastoma #5, EGFR Amp. N, 5′ MUT) was “++++ (++++=>75%)”, the Immunoreactivity ([6]; glioblastoma #6, EGFR Amp. A, WT) was “++++ (++++=>75%)” and the Immunoreactivity ([6]; glioblastoma #7, EGFR Amp. N, 5′ MUT) was “++++ (++++=>75%)”. For the same molecule, the Immunoreactivity ([6]; glioblastoma #8, EGFR Amp. A, 5′ MUT) was “++++ (++++=>75%)”, the Immunoreactivity ([6]; glioblastoma #9, EGFR Amp. A, WT) was “++++ (++++=>75%)” and the Immunoreactivity ([6]; glioblastoma #10, EGFR Amp. N, WT) was “neg”. For the same molecule, the Immunoreactivity ([6]; glioblastoma #11, EGFR Amp. A, 5′ MUT) was “++ (++=25-50%)”, the Immunoreactivity ([6]; glioblastoma #12, EGFR Amp. A, 5′ MUT) was “++ (++=25-50%)” and the Immunoreactivity ([6]; glioblastoma #13, EGFR Amp. N, WT) was “++++ (++++=>75%)”. The Immunoreactivity ([6]; glioblastoma #14, EGFR Amp. Nd, nd) was “neg”, the Immunoreactivity ([6]; glioblastoma #15, EGFR Amp. N, WT) was “++ (++=25-50%)” and the Immunoreactivity ([6]; glioblastoma #16, EGFR Amp. N, nd) was “neg”. The Immunoreactivity ([6]; glioblastoma #17, EGFR Amp. N, WT) was “neg”, the Immunoreactivity ([6]; glioblastoma #18, EGFR Amp. A, 5′ MUT) was “++++ (++++=>75%)” and the Immunoreactivity ([6]; glioblastoma #19, EGFR Amp. N, WT) was “++++ (++++=>75%)”. For the same molecule, the Immunoreactivity ([6]; glioblastoma #20, EGFR Amp. N, WT) was “neg”, the Immunoreactivity ([6]; glioblastoma #21, EGFR Amp. N, WT) was “++++ (++++=>75%)” and the Immunoreactivity ([6]; glioblastoma #22, EGFR Amp. N, WT) was “neg”. The Immunoreactivity ([6]; glioblastoma #23, EGFR Amp. N, 5′ MUT) was “++++ (++++=>75%)”, the Immunoreactivity ([6]; glioblastoma #24, EGFR Amp. A, WT) was “++++ (++++=>75%)” and the Immunoreactivity ([6]; glioblastoma #25, EGFR Amp. N, WT) was “neg”. The Immunoreactivity ([6]; glioblastoma #26, EGFR Amp. A, 5′ MUT) was “++++ (++++=>75%)”, the Immunoreactivity ([6]; glioblastoma #27, EGFR Amp. N, WT) was “neg” and the Immunoreactivity ([6]; glioblastoma #28, EGFR Amp. N, WT) was “neg”. The Immunoreactivity ([6]; glioblastoma #29, EGFR Amp. N, WT) was “neg”, the Immunoreactivity ([6]; glioblastoma #30, EGFR Amp. N, WT) was “++++ (++++=>75%)” and the Immunoreactivity ([6]; glioblastoma #31, EGFR Amp. N, nd) was “neg”. For the same molecule, the Immunoreactivity ([6]; glioblastoma #32, EGFR Amp. N, 5′ MUT) was “+++ (+++=50-75%)”, the Immunoreactivity ([6]; glioblastoma #33, EGFR Amp. A, 5′ MUT) was “++++ (++++=>75%)” and the Immunoreactivity ([6]; glioblastoma #34, EGFR Amp. N, WT) was “+++ (+++=50-75%)”. For the same molecule, the Immunoreactivity ([6]; glioblastoma #35, EGFR Amp. A, 5′ MUT) was “neg”, the Immunoreactivity ([6]; glioblastoma #36, EGFR Amp. A, 5′ MUT) was “++ (++=25-50%)” and the Immunoreactivity ([6]; glioblastoma #37, EGFR Amp. A, 5′ MUT) was “+ (+=5-25%)”. For the same molecule, the Immunoreactivity ([6]; glioblastoma #38, EGFR Amp. N, WT) was “neg”, the Immunoreactivity ([6]; glioblastoma #39, EGFR Amp. N, 5′ MUT) was “neg” and the Immunoreactivity ([6]; glioblastoma #40, EGFR Amp. A, WT) was “++++ (++++=>75%)”. The Immunoreactivity ([6]; glioblastoma #41, EGFR Amp. N, WT) was “neg”, the Immunoreactivity ([6]; glioblastoma #42, EGFR Amp. A, WT) was “++++ (++++=>75%)” and the Immunoreactivity ([6]; glioblastoma #43, EGFR Amp. nd, nd) was “neg”. The Immunoreactivity ([6]; glioblastoma #44, EGFR Amp. N, WT) was “neg”, the Immunoreactivity ([6]; glioblastoma #45, EGFR Amp. N, WT) was “neg” and the Immunoreactivity ([6]; glioblastoma #46, EGFR Amp. N, nd) was “neg”. For the same molecule, the “positive cases / glioblastomas” value ([6]; panel of 46) was 27/46.
